± gives the uncertainty stated by the source.

To fix the notation:
B1: Protein C-ets-1, residues 55 to 135; numbered along this chain, P14921 (parent)
chain: GFTKEQQRLGIPKDPRQWTETHVRDWVMWAVNEFSLKGVDFQKFCMNGAALCALGKDCFLELAPDFVGDILWEHLEILQKE

The variants in the series derive from B1. As to the kind of experiment: abundance fitness (aPCA) (normalised: wild type 0, dead -1); higher = more abundant; growth selection in yeast, the domain comes from the species named. Particulars: Homo sapiens.
As to D69V, the abundance fitness was -0.098 ± 0.041. The value for D69I was -0.038 ± 0.14. The value for V27L was -0.013 ± 0.03; that for V27D was -0.887 ± 0.11. The value for V27P was -0.86 ± 0.076; that for V31I was -0.053 ± 0.07. With V31M, the abundance fitness was -0.069 ± 0.04. Turning to G38S, the abundance fitness was -0.123 ± 0.032. With G38W, the abundance fitness was -0.467 ± 0.047. The value for G38K was -0.055 ± 0.082; that for G38R was -0.18 ± 0.029. For G38I, the abundance fitness was -0.428 ± 0.12.

G38D: the abundance fitness was -0.039 ± 0.05. In the case of G38L, the abundance fitness is -0.492 ± 0.038. The value for G38F was -0.43 ± 0.055; that for E76L was -0.094 ± 0.043. E76I: the abundance fitness is -0.267 ± 0.13.

Take E76Q: the abundance fitness was -0.043 ± 0.062. The value for E76H was -0.085 ± 0.091.

Consider E76S, for which the abundance fitness was -0.021 ± 0.037. Regarding T3M, the abundance fitness was -0.028 ± 0.072. For the variant T3H, the abundance fitness was -0.066 ± 0.094. Consider T3N, for which the abundance fitness was -0.121 ± 0.081. As for T3Q, the abundance fitness is -0.032 ± 0.067. The value for F59Y was -0.869 ± 0.17. The value for F59T was -0.963 ± 0.096; that for F59P was -0.984 ± 0.078. The value for F59M was -0.239 ± 0.048; that for F59V was -0.467 ± 0.031; that for G48M was -1.07 ± 0.23. As for A30M, the abundance fitness is -0.008 ± 0.055. A30C: the abundance fitness is -0.02 ± 0.059. The value for A30W was -0.195 ± 0.039; that for D14V was -0.602 ± 0.033; that for D14G was -0.844 ± 0.048. In the case of D14W, the abundance fitness was -0.661 ± 0.047. For the variant D14I, the abundance fitness is -0.76 ± 0.11.

For the variant D14H, the abundance fitness was -0.155 ± 0.044. The value for D14N was -0.122 ± 0.061; that for D14S was -0.339 ± 0.038; that for D14A was -0.533 ± 0.034. The value for T19Y was -0.642 ± 0.091. For T19M, the abundance fitness was -0.345 ± 0.053. The value for T19S was -0.052 ± 0.033; that for T19N was -0.16 ± 0.084. The value for T19F was -0.858 ± 0.11; that for L75Y was -0.62 ± 0.14; that for L75D was -0.91 ± 0.2. The value for M28A was -0.026 ± 0.033; that for M28N was 0.054 ± 0.06. M28K: the abundance fitness was -0.016 ± 0.04.

As for R24F, the abundance fitness was -0.287 ± 0.088. In the case of R24H, the abundance fitness was 0.051 ± 0.087. As to R24L, the abundance fitness was -0.05 ± 0.034.

As to R24M, the abundance fitness turned out to be 0.023 ± 0.062. The value for R24V was -0.059 ± 0.043; that for R24P was -1.03 ± 0.13. On to R24I, for which the abundance fitness was -0.133 ± 0.12. The value for R24T was -0.087 ± 0.052; that for R8N was -0.16 ± 0.078. The value for R8Q was -0.083 ± 0.06; that for N32I was -0.193 ± 0.073; that for N32L was -0.179 ± 0.039. With N32V, the abundance fitness is -0.111 ± 0.031. The value for N32M was -0.119 ± 0.055; that for N32P was -0.49 ± 0.045; that for N32E was -0.042 ± 0.043. For L51N, the abundance fitness is -0.718 ± 0.17. In the case of L51D, the abundance fitness was -0.97 ± 0.073. For the variant L51Q, the abundance fitness is -0.923 ± 0.11. As to C45E, the abundance fitness is 0.022 ± 0.053. Consider C45Y, for which the abundance fitness was -0.032 ± 0.045. Consider C45A, for which the abundance fitness came out at 0.053 ± 0.033. The value for C45F was -0.028 ± 0.081. For the variant A49F, the abundance fitness was -0.339 ± 0.039. A49P: the abundance fitness was -0.137 ± 0.028.

As for A49G, the abundance fitness was -0.126 ± 0.022. Take A49Y: the abundance fitness was -0.262 ± 0.043. A49D: the abundance fitness was -0.04 ± 0.032. Take A49T: the abundance fitness was -0.048 ± 0.028. The value for G55R was -0.04 ± 0.029; that for G55H was -0.055 ± 0.066; that for G55F was -0.992 ± 0.15.

In the case of G55E, the abundance fitness worked out at 0.031 ± 0.046. The value for G55P was 0.01 ± 0.037. As to D65P, the abundance fitness was 0.076 ± 0.039.

For the variant D65E, the abundance fitness is 0.01 ± 0.055. The value for D65C was -0.057 ± 0.032; that for T21K was -0.022 ± 0.073.

With T21C, the abundance fitness was -0.089 ± 0.049.

With T21E, the abundance fitness was -0.073 ± 0.071.

Consider T21V, for which the abundance fitness was -0.041 ± 0.041. On to T21M, for which the abundance fitness was -0.058 ± 0.059.

In the case of Q7N, the abundance fitness is -0.026 ± 0.13.

Q7D: the abundance fitness amounted to 0 ± 0.075. On to Q7A, for which the abundance fitness was -0.055 ± 0.031.

For D25Q, the abundance fitness was -0.003 ± 0.048. D25P: the abundance fitness was -0.973 ± 0.08. The value for D25A was 0.014 ± 0.027; that for D25G was -0.038 ± 0.027; that for D25R was -0.023 ± 0.027. With D25K, the abundance fitness is -0.005 ± 0.049.

Turning to D25E, the abundance fitness worked out at 0.06 ± 0.039.

In the case of L71S, the abundance fitness was -0.805 ± 0.089. For the variant L71M, the abundance fitness is -0.176 ± 0.055. Consider L71N, for which the abundance fitness was -0.128 ± 0.38.

For L71V, the abundance fitness was -1.05 ± 0.079. The value for I70P was -0.289 ± 0.039; that for I70K was -0.065 ± 0.066.

V67D: the abundance fitness is -0.138 ± 0.096. As to V67A, the abundance fitness was -0.062 ± 0.054.

Take V67N: the abundance fitness is -0.242 ± 0.11. Take V67T: the abundance fitness was -0.057 ± 0.086. In the case of V67Y, the abundance fitness is -0.319 ± 0.13.

Consider A63W, for which the abundance fitness is -0.014 ± 0.062. As for A63R, the abundance fitness was -0.924 ± 0.087. Take A63N: the abundance fitness was -0.399 ± 0.17. The value for A63V was 0.007 ± 0.033; that for A63D was -0.873 ± 0.13; that for A63K was -0.635 ± 0.096. The value for K4L was -0.085 ± 0.042; that for K4G was -0.054 ± 0.038; that for K4C was -0.108 ± 0.065.

For K4S, the abundance fitness is -0.055 ± 0.043. On to L36V, for which the abundance fitness was -0.276 ± 0.037. In the case of L36S, the abundance fitness was -0.751 ± 0.065.

Regarding L36A, the abundance fitness is -0.52 ± 0.031. The value for L60A was -0.009 ± 0.034; that for L60P was -0.628 ± 0.063; that for L60H was -0.052 ± 0.069. The value for L60G was -0.1 ± 0.029; that for L60N was -0.117 ± 0.093; that for L60Y was -0.058 ± 0.073. The value for A53N was 0.01 ± 0.052; that for A53E was 0.052 ± 0.044. With A53H, the abundance fitness is -0.188 ± 0.075. The value for A53F was -0.655 ± 0.066; that for A53Y was -0.583 ± 0.081. For the variant G1D, the abundance fitness is 0.074 ± 0.062. For the variant A50T, the abundance fitness is -0.026 ± 0.041. The value for A50E was 0.02 ± 0.04; that for A50Q was 0.015 ± 0.058; that for A50G was -0.202 ± 0.029. The value for F44G was -1.02 ± 0.098.

Take F44Q: the abundance fitness was -1.08 ± 0.24. The value for F44C was -1.01 ± 0.2; that for F44I was -0.38 ± 0.079; that for F44R was -0.939 ± 0.1.

Q6R: the abundance fitness was -0.041 ± 0.031. For Q6I, the abundance fitness was 0.034 ± 0.084.

As to Q6S, the abundance fitness was -0.005 ± 0.04. Take Q6H: the abundance fitness is -0.235 ± 0.047.

On to Q6L, for which the abundance fitness was -0.006 ± 0.043. The value for W26T was -0.954 ± 0.06; that for W26Y was -0.281 ± 0.049; that for W26S was -0.968 ± 0.05.

Consider W26V, for which the abundance fitness was -0.863 ± 0.041. The value for W72S was -0.735 ± 0.062; that for F34E was -0.425 ± 0.045. Take F34R: the abundance fitness is -0.3 ± 0.029. As to F34K, the abundance fitness was -0.175 ± 0.046. Turning to F34C, the abundance fitness is -0.428 ± 0.048. Consider F34T, for which the abundance fitness was -0.743 ± 0.067.

As to E61K, the abundance fitness turned out to be 0.066 ± 0.077. The value for E61S was -0.011 ± 0.038. For E61C, the abundance fitness is -0.202 ± 0.083. E61W: the abundance fitness was -0.908 ± 0.12.

(Values after the Human Domainome abundance scans (Beltran et al. 2025).)
